Test results: patent US20120014957A1 (AbbVie / Abbott, published 2012)

B1: DVD1338 (bispecific antibody, human IgG1, kappa)
heavy: not shown
light: DIQMTQSPSSLSASVGDRVTITCQASQDISNYLNWYQQKPGKAPKLLIYDASNLETGVPSRFSGSGSGTDFTFTISSLQPEDIATYFCQHFDHLPLAFGGGTKVEIKRTVAAPDIQMTQSPSSLSASVGDRVTITCRASEDIYNALAWYQQKPGKAPKLLIYNTDTLHTGVPSRFSGSGSGTDYTLTISSLQPEDFATYFCQHYFHYPRTFGQGTKVEIKRTVAAPSVFIFPPSDEQLKSGTASVVCLLNNFYPREAKVQWKVDNALQSGNSQESVTEQDSKDSTYSLSSTLTLSKADYEKHKVYACEVTHQGLSSPVTKSFNRGEC
B2: DVD1314 (bispecific antibody, human IgG1, kappa)
heavy: not shown
light: QSVLTQPPSVSAAPGQKVTISCSGSSSNIENNHVSWYQQLPGTAPKLLIYDNNKRPSGIPDRFSGSKSGTSATLGITGLQTGDEADYYCETWDTSLSAGRVFGGGTKLTVLGQPKAAPDIQMTQSPSSLSASVGDRVTITCRASEDIYNALAWYQQKPGKAPKLLIYNTDTLHTGVPSRFSGSGSGTDYTLTISSLQPEDFATYFCQHYFHYPRTFGQGTKVEIKRTVAAPSVFIFPPSDEQLKSGTASVVCLLNNFYPREAKVQWKVDNALQSGNSQESVTEQDSKDSTYSLSSTLTLSKADYEKHKVYACEVTHQGLSSPVTKSFNRGEC
B3: DVD1313 (bispecific antibody, human IgG1, lambda)
heavy: not shown
light: DIQMTQSPSSLSASVGDRVTITCRASEDIYNALAWYQQKPGKAPKLLIYNTDTLHTGVPSRFSGSGSGTDYTLTISSLQPEDFATYFCQHYFHYPRTFGQGTKVEIKRTVAAPQSVLTQPPSVSAAPGQKVTISCSGSSSNIENNHVSWYQQLPGTAPKLLIYDNNKRPSGIPDRFSGSKSGTSATLGITGLQTGDEADYYCETWDTSLSAGRVFGGGTKLTVLGQPKAAPSVTLFPPSSEELQANKATLVCLISDFYPGAVTVAWKADSSPVKAGVETTTPSKQSNNKYAASSYLSLTPEQWKSHRSYSCQVTHEGSTVEKTVAPTECS
B4: DVD1362 (bispecific antibody, human IgG1, kappa)
heavy: not shown
light: QSALTQPASVSGSPGQSITISCTGTSSDVGSYNVVSWYQQHPGKAPKLIIYEVSQRPSGVSNRFSGSKSGNTASLTISGLQTEDEADYYCCSYAGSSIFVIFGGGTKVTVLGQPKAAPDIQMTQSPSSLSASVGDRVTITCRASEDIYNALAWYQQKPGKAPKLLIYNTDTLHTGVPSRFSGSGSGTDYTLTISSLQPEDFATYFCQHYFHYPRTFGQGTKVEIKRTVAAPSVFIFPPSDEQLKSGTASVVCLLNNFYPREAKVQWKVDNALQSGNSQESVTEQDSKDSTYSLSSTLTLSKADYEKHKVYACEVTHQGLSSPVTKSFNRGEC
B5: DVD1335 (bispecific antibody, human IgG1, kappa)
heavy: not shown
light: DIQMTQSPSSLSASVGDRVTITCRASEDIYNALAWYQQKPGKAPKLLIYNTDTLHTGVPSRFSGSGSGTDYTLTISSLQPEDFATYFCQHYFHYPRTFGQGTKVEIKRTVAAPQIVLSQSPAILSPSPGEKVTMTCRASSSVSYIHWFQQKPGSSPKPWIYATSNLASGVPVRFSGSGSGTSYSLTISRVEAEDAATYYCQQWTSNPPTFGGGTKLEIKRTVAAPSVFIFPPSDEQLKSGTASVVCLLNNFYPREAKVQWKVDNALQSGNSQESVTEQDSKDSTYSLSSTLTLSKADYEKHKVYACEVTHQGLSSPVTKSFNRGEC
B6: DVD1333 (bispecific antibody, human IgG1, kappa)
heavy: not shown
light: DIQMTQSPSSLSASVGDRVTITCRASEDIYNALAWYQQKPGKAPKLLIYNTDTLHTGVPSRFSGSGSGTDYTLTISSLQPEDFATYFCQHYFHYPRTFGQGTKVEIKRTVAAPQAVLTQPSSLSAPPGASASLTCTLRSGFNVDSYRISWYQQKPGSPPQYLLRYKSDSDKQQGSGVPSRFSGSKDASANAGILLISGLQSEDEADYYCMIWHSSAWVFGGGTKLTVLRTVAAPSVFIFPPSDEQLKSGTASVVCLLNNFYPREAKVQWKVDNALQSGNSQESVTEQDSKDSTYSLSSTLTLSKADYEKHKVYACEVTHQGLSSPVTKSFNRGEC

Molecular target: Recombinant Human β-NGF (human, UniProt P01138 122-241)
Experiment: cell-based or functional assay

Binder | C-Terminal VD NGF Inhibition Assay EC50 | N-Terminal VD NGF Inhibition Assay EC50
B1 | 1270 pM | 
B2 | 0.3 pM | 
B3 |  | 0.9 pM
B4 | 2.5 pM | 
B5 |  | 0.3 pM
B6 |  | 0.6 pM
